Test results: IntAct's records for PubMed 19804755

B1: DNA repair and telomere maintenance protein nbs1 (Schizosaccharomyces pombe (strain ATCC 38366 / 972)), O43070 (parent)
chain: MWIIEAEGDILKGKSRILFPGTYIVGRNVSDDSSHIQVISKSISKRHARFTILTPSEKDYFTGGPCEFEVKDLDTKFGTKVNEKVVGQNGDSYKEKDLKIQLGKCPFTINAYWRSMCIQFDNPEMLSQWASNLNLLGIPTGLRDSDATTHFVMNRQAGSSITVGTMYAFLKKTVIIDDSYLQYLSTVKESVIEDASLMPDALECFKNIIKNNDQFPSSPEDCINSLEGFSCAMLNTSSESHHLLELLGLRISTFMSLGDIDKELISKTDFVVLNNAVYDSEKISFPEGIFCLTIEQLWKIIIERNSRELISKEIERLKYATASNSTPQKIIQPQRHIQKNIVDDLFSVKKPLPCSPKSKRVKTLENLSIMDFVQPKQMFGKEPEGYLSNQSNNGSAQNKKSGDNSEKTKNSLKSSSKKSANTGSGQGKTKVEYVSYNSVDKGNSSPFKPLELNVVGEKKANAEVDSLPSENVQESEDDKAFEENRRLRNLGSVEYIRIMSSEKSNANSRHTSKYYSGRKNFKKFQKKASQKAPLQAFLSLSEHKKTEVFDQDDTDLEPVPRLMSKVESIPAGASSDKSGKSSISKKSSNSFKELSPKTNNDEDDEFNDLKFHF
partner: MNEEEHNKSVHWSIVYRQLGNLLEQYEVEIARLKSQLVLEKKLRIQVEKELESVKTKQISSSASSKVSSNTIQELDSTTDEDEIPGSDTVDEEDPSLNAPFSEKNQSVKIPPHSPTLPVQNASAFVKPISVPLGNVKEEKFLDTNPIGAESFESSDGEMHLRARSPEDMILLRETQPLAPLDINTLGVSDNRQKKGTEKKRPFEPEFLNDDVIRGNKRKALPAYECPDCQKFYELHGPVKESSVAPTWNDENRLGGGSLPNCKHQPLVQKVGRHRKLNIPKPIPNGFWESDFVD

Variants of: B1
Conditions: with com1_schpo ctp1, O74986

| effect of a mutation on the interaction | Variant |
| --- | --- |
| decreasing interaction | R27A;K45A |
